# Test results reported in patent publication US20230257444A1, “FUSION PROTEIN AND COMBINATIONS THEREOF” (Agency for Science, Technology and Research, priority 2020, published 2023).
# What was measured:
# [1] = target: T1, FcγRI (Homo sapiens, UniProt P12314); experiment: Surface plasmon resonance: binding to immobilised Fc receptor; details: SPR
# T1 construct: soluble ectodomains of FcR from R&D Systems; purchased R&D Systems 1257-FC-050
# Source text: (§1) A BIAcore T200 SPR Biosensors (GE Healthcare) was used to assay the interaction of soluble ectodomains of FcR from R&D Systems with hDectin1-Fc and IgG1. Amine coupling via N-hydroxysuccinimide ester was formed on a CM5 sensor chip surface according to a procedure recommended by the manufacturer. Ectodomains were immobilized at acidic pH, resulting in the following densities: FcγRI (#1257-FC-050): 1919 RU, FcγRIIa (#1330-CD-050/CF):1766 RU, FcγRIIb/c (#1875-CD-050): 1972 RU, FcγRIIIa (#4325-FC-050): 2275 RU, FcγRIIIb (#1597-FC-050/CF): 2393 RU, FcRn (#8639-FC-050): 2836. A range of hDectin1-Fc/IgG1 concentrations was injected into flow cells at a flow rate of […], with a contact and dissociation time of 300 and 900 seconds, respectively. After each assay cycle, the sensor chip surface was regenerated using 10 mM NaOH. Binding response was recorded as resonance units (RU; 1 RU=1 pg/mm^2) continuously, with background binding automatically subtracted. Due to the polyclonal nature of the hDectin1-Fc/IgG1 recombinant proteins used, kinetic constants (kon, koff, t1/2) were not determined, and the KD was calculated by analyzing the concentration-dependence of the steady-state signal reached at the end of the injection using BIA evaluation version 3 software (GE Healthcare) and Scrubber version 2 software (BioLogic Software, Campbell, Australia). The steady-state response was plotted against the concentration of hDectin1-Fc/IgG1 and fitted using Origin software.
# (§2) Antibody mediated immune activation depends on the strength of binding and affinity of the Fc to the various Fcγ receptors. Binding to the neonatal receptor FcRn is also important for the half-life in serum and the transcytosis across endothelial cells into various tissues. Surface plasmon resonance was used to evaluate the binding of the Immunoglobulin G's Fc of hDectin1-Fc to the various Fc receptors (FcγRI, FcγRIIa, FcγRIIb, FcγRIIIa, FcγRIIIb and FcRn) present on immune cells by flowing free hDectin1-Fc of various concentrations over immobilised Fc receptors (FIG. 11A-F). […] High affinity FcγRI(CD64) is expressed on macrophages, monocytes and neutrophils and low affinity FcγRIIIa (CD16a) is expressed on natural killer cells, monocytes, macrophages and neutrophils. Both CD64 and CD16a activating receptors have Immunoreceptor Tyrosine based Activation Motif (ITAM) signalling domain. FcγRI strongly binds IgG opsonized targets to trigger phagocytosis and a proinflammatory response of TNFα, IFNγ and production of oxidative species. FcγRIIIa likewise activate degranulation, phagocytosis, and oxidative burst.
# [2] = target: T2, FcγRIIa (Homo sapiens, UniProt P12318, H167R); experiment: as above; details: SPR, steady state
# T2 construct: soluble ectodomains of FcR from R&D Systems; purchased R&D Systems 1330-CD-050/CF
# T2 sequence (P12318 34-217 H167R limits assumed): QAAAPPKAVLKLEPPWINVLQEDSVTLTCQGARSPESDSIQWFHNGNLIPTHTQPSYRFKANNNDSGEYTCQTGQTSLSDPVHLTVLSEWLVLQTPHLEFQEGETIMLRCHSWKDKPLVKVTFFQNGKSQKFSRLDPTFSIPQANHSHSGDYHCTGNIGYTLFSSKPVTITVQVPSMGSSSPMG
# Source text: as §1, §2
# [3] = target: T3, FcγRIIIb (Homo sapiens, UniProt O75015); experiment: as above; details: SPR, steady state
# T3 construct: soluble ectodomains of FcR from R&D Systems; purchased R&D Systems 1597-FC-050/CF
# T3 sequence (O75015 17-200 limits assumed): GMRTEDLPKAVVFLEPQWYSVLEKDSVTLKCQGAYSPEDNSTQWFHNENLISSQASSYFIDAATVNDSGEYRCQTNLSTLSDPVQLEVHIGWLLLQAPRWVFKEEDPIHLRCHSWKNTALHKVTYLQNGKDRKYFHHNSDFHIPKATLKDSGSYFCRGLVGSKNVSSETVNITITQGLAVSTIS
# Source text: as §1, §2
# [4] = target: T4, FcγRIIIa (Homo sapiens, UniProt P08637, F176V); experiment: as above; details: SPR
# T4 construct: soluble ectodomains of FcR from R&D Systems; purchased R&D Systems 4325-FC-050
# T4 sequence (P08637 17-208 F176V limits assumed): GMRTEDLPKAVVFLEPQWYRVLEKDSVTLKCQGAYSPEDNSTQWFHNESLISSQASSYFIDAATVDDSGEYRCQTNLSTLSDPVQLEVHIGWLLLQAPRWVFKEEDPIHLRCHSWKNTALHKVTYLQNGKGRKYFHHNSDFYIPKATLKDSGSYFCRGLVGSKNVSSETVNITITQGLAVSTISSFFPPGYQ
# Source text: as §1, §2
# [5] = target: T5, FcRn (Homo sapiens, UniProt P55899); experiment: as above; details: SPR
# T5 construct: soluble ectodomains of FcR from R&D Systems; purchased R&D Systems 8639-FC-050
# T5 sequence (P55899 24-297 limits assumed): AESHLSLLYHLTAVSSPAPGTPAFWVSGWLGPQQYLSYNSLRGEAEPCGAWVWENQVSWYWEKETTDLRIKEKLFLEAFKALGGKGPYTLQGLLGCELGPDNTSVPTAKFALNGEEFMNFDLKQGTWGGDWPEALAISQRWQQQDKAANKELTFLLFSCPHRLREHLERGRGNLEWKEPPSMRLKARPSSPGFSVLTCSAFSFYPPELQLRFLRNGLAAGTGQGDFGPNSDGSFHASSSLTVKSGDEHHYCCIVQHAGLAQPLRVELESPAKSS
# T5 sequence (P61769 21-119 partner): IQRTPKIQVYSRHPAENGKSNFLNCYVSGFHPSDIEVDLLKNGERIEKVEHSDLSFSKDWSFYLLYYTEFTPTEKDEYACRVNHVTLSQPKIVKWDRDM
# Source text: as §1, §2
# [6] = test system: SC5314 Candida albicans; experiment: In vivo mouse monotherapy survival model (haematogenously disseminated candidiasis); set-up: species or system Balb/c mice
# Method: 9 week old female Balb/c mice (InVivos, Singapore) were injected intraperitoneally with 1, 2 or 4 mg hDectin1-Fc in groups of 8 and the drug was allowed to distribute within the mice till its peak concentration at 2 hours based on the pharmacokinetic data. The mice were then injected intravenously with 0.5, 0.25 or 0.1 milion SC5314 Candida albicans cells to achieve a haematogenously disseminated candidiasis model. Another set of mice were injected with 0.5, 1, 2 mg hDectin1-Fc followed by intravenous injection with SC5314 Candida albicans 2 hours later. […] The mice were observed daily and moribund mice were euthanized and counted as dead the following day. Kaplan-Meier survival plots were made to track the survival overtime of the mice. Statistical analysis of the difference between mice treated with hDectin1-Fc or untreated was done with the Mantel-Cox log rank test.
# To examine the effect of hDectin1-Fc passive immunization against reducing the fatality of haematogenously disseminated candidiasis, a Balb/c murine model of hDectin1-Fc at various doses in relation to Candida albicans inoculum was used. […] An untreated group without hDectin1-Fc but infected with the respective inoculum of Candida albicans was used as a control in each experimental set (FIG. 15). Survival in each group was monitored twice daily until all the mice had died or there was survival of 2 weeks from the last death. Moribund mice were euthanized and counted as part of the following day. […] The negative effect on survival of a high dose of hDectin1-Fc in relation to fungal inoculum is most apparent in the 4 mg hDectin1-Fc dose with 0.1 million Candida albicans (FIG. 15C) and 2 mg hDectin1-Fc with 0.05 million Candida albicans inoculum (FIG. 15D). […] The proximity between the 2 mg and 1 mg curves have a growing divergence as the fungal burden is reduced from 0.5 to 0.05 million (FIG. 15A-D).
# T1 sequence (P12314 16-292 limits assumed): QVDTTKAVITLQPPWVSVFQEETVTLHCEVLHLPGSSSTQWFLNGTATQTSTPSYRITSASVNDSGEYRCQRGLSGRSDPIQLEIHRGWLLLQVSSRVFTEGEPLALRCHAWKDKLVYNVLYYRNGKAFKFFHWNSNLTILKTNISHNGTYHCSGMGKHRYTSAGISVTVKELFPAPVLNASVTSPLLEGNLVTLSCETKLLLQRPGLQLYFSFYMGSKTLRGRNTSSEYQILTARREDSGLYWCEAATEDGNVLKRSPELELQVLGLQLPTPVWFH
substance,measurement,setting,value
hDectin1-Fc: soluble dimeric fusion protein: human Dectin-1 receptor polypeptide (aa 73-247) fused to human IgG1 Fc via hinge; SEQ ID NO: 5,KD for FcγRI compared with Herceptin,[1],moderately weaker binding
same,binding to FcγRI (Binding Constant KD screen),[1]; steady state,able to interact with and bind to
same,binding to FcγRIIa (Binding Constant KD screen),[2],"bind to FcγRI, FcγRIIIa and FcRn only"
same,binding to FcγRIIIb (Binding Constant KD screen),[3],"bind to FcγRI, FcγRIIIa and FcRn only"
same,KD for FcγRIIIa compared with Herceptin,[4],moderately weaker binding
same,binding to FcγRIIIa (Binding Constant KD screen),[4]; steady state,able to interact with and bind to
same,KD for FcRn compared with Herceptin,[5],moderately weaker binding
same,binding to FcRn (Binding Constant KD screen),[5]; steady state,able to interact with and bind to
same,survival curve,"[6]; 0.05 mg hDectin1-Fc, subacute inoculum of 0.05 million Candida albicans cells",prominent shift in the survival curve
same,survival (rate of death vs untreated group),"[6]; 2 mg hDectin1-Fc i.p., 0.05 million Candida albicans i.v. (FIG. 15D)",rate of death was greater than the corresponding untreated group
same,survival (rate of death vs untreated group),"[6]; 4 mg hDectin1-Fc i.p., 0.1 million Candida albicans i.v. (FIG. 15C)",rate of death was greater than the corresponding untreated group
same,survivability,"[6]; hDectin1-Fc at the appropriate dose, passive immunization 2 hours before challenge",able to improve survivability
same,"survival, 1 mg dose versus 2 mg dose","[6]; lethal infection model, 0.5 million Candida albicans cells (FIG. 15A)",marginal optimal therapeutic effect of the 1 mg dose over the 2 mg dose
